Experimental data published in PMC9105653, “Zinc and Copper Ions Induce Aggregation of Human β-Crystallins” (Molecules, 2022).

Target: the molecule itself
Test: dynamic light scattering; 50 µM protein in 10 mM Hepes pH 8.0, 100 mM NaCl (buffer B), without metal ions; apparent RH compared with the RH predicted (HullRad) from face-en-face dimer models

B1: human βB2-crystallin (HβB2) (natural protein)
chain: ASDHQTQAGKPQSLNPKIIIFEQENFQGHSHELNGPCPNLKETGVEKAGSVLVQAGPWVGYEQANCKGEQFVFEKGEYPRWDSWTSSRRTDSLSSLRPIKVDSQEHKIILYENPNFTGKKMEIIDDDVPSFHAHGYQEKVSSVRVQSGTWVGYQYPGYRGLQYLLEKGDYKDSSDFGAPHPQVQSVRRIRDMQWHQRGAFHPSN
notes: human beta-crystallin B2; printed length 205 residues; source: E. coli BL21-RIL, purified (HisTrap, SUMO protease Ulp1 cleavage, second HisTrap, Q-Sepharose)
Question: B1 was tested. Which “stoichiometry N” value did it give?
Answer: 2

B2: human βA1-crystallin (HβA1) (natural protein, UniProt P05813-2 1-198, looked up)
chain: MAQTNPTPGSLGPWKITIYDQENFQGKRMEFTSSCPNVSERSFDNVRSLKVESGAWIGYEHTSFCGQQFILERGEYPRWDAWSGSNAYHIERLMSFRPICSANHKESKMTIFEKENFIGRQWEISDDYPSLQAMGWFNNEVGSMKIQSGAWVCYQYPGYRGYQYILECDHHGGDYKHWREWGSHAQTSQIQSIRRIQQ
notes: human beta-crystallin A1, the shorter product of the gene CRYBA1 (made with betaA3 from the same gene by leaky ribosomal scanning); printed length 198 residues; source: E. coli BL21-RIL, purified (HisTrap, SUMO protease Ulp1 cleavage, second HisTrap, Q-Sepharose)
Question: How did the “stoichiometry N” value turn out when B2 was run?
Answer: 2
